Tests used:
[1] = target: recombinant fragment of human VE-cadherin extracellular region, CAD 1-4 fragment (Asp48-Glu478, preceded by Met), SEQ ID NO: 4 (human) (UniProt P33151); experiment: sandwich ELISA, BV9 capture, rabbit polyclonal detection; CAD1-4 at 10 ng/mL
[2] = target: recombinant fragment of human VE-cadherin extracellular region, CAD 1-4 fragment (Asp48-Glu478, preceded by Met), SEQ ID NO: 4 (human) (UniProt P33151); experiment: sandwich ELISA, BV9 capture, rabbit polyclonal detection; CAD1-4 at 2.5 ng/mL; second replicate
[3] = target: circulating (soluble) human VE-cadherin, 90 kDa form, in human serum or plasma (human) (UniProt P33151); experiment: western blot of healthy human serum diluted 1/500, BV9 tested from 0.02 to 1 µg/mL
[4] = target: recombinant fragment of human VE-cadherin extracellular region, CAD 1-4 fragment (Asp48-Glu478, preceded by Met), SEQ ID NO: 4 (human) (UniProt P33151); experiment: sandwich ELISA, BV9 capture, rabbit polyclonal detection; CAD1-4 at 1.25 ng/mL
[5] = target: recombinant fragment of human VE-cadherin extracellular region, CAD 1-4 fragment (Asp48-Glu478, preceded by Met), SEQ ID NO: 4 (human) (UniProt P33151); experiment: sandwich ELISA, BV9 capture, rabbit polyclonal detection; CAD1-4 at 1.25 ng/mL; first replicate
[6] = target: recombinant fragment of human VE-cadherin extracellular region, CAD 1-4 fragment (Asp48-Glu478, preceded by Met), SEQ ID NO: 4 (human) (UniProt P33151); experiment: sandwich ELISA, BV9 capture, rabbit polyclonal detection; CAD1-4 at 2.5 ng/mL
[7] = target: recombinant fragment of human VE-cadherin extracellular region, CAD 1-4 fragment (Asp48-Glu478, preceded by Met), SEQ ID NO: 4 (human) (UniProt P33151); experiment: as above; remark: listed apart in the source
[8] = target: recombinant fragment of human VE-cadherin extracellular region, CAD 1-4 fragment (Asp48-Glu478, preceded by Met), SEQ ID NO: 4 (human) (UniProt P33151); experiment: SDS-PAGE and western blot of the purified fragment with BV9
[9] = target: recombinant fragment of human VE-cadherin extracellular region, CAD 1-4 fragment (Asp48-Glu478, preceded by Met), SEQ ID NO: 4 (human) (UniProt P33151); experiment: sandwich ELISA, BV9 capture, rabbit polyclonal detection; CAD1-4 at 2.5 ng/mL; mean OD minus OD at 0 ng/mL
[10] = target: recombinant fragment of human VE-cadherin extracellular region, CAD 1-4 fragment (Asp48-Glu478, preceded by Met), SEQ ID NO: 4 (human) (UniProt P33151); experiment: sandwich ELISA, BV9 capture, rabbit polyclonal detection; CAD1-4 at 0.63 ng/mL
[11] = target: recombinant fragment of human VE-cadherin extracellular region, CAD 1-4 fragment (Asp48-Glu478, preceded by Met), SEQ ID NO: 4 (human) (UniProt P33151); experiment: sandwich ELISA, BV9 capture, rabbit polyclonal detection; CAD1-4 at 10 ng/mL; first replicate
[12] = target: recombinant fragment of human VE-cadherin extracellular region, CAD 1-4 fragment (Asp48-Glu478, preceded by Met), SEQ ID NO: 4 (human) (UniProt P33151); experiment: sandwich ELISA, BV9 capture, rabbit polyclonal detection; CAD1-4 at 1.25 ng/mL; mean OD minus OD at 0 ng/mL
[13] = target: recombinant fragment of human VE-cadherin extracellular region, CAD 1-4 fragment (Asp48-Glu478, preceded by Met), SEQ ID NO: 4 (human) (UniProt P33151); experiment: sandwich ELISA, BV9 capture, rabbit polyclonal detection; CAD1-4 at 5 ng/mL; second replicate
[14] = target: recombinant fragment of human VE-cadherin extracellular region, CAD 1-4 fragment (Asp48-Glu478, preceded by Met), SEQ ID NO: 4 (human) (UniProt P33151); experiment: sandwich ELISA, BV9 capture, rabbit polyclonal detection; CAD1-4 at 1.25 ng/mL; mean OD minus OD at 0 ng/mL; remark: listed apart in the source
[15] = target: recombinant fragment of human VE-cadherin extracellular region, CAD 1-4 fragment (Asp48-Glu478, preceded by Met), SEQ ID NO: 4 (human) (UniProt P33151); experiment: sandwich ELISA, BV9 capture, rabbit polyclonal detection; CAD1-4 at 0.63 ng/mL; mean OD minus OD at 0 ng/mL
[16] = target: recombinant fragment of human VE-cadherin extracellular region, CAD 1-4 fragment (Asp48-Glu478, preceded by Met), SEQ ID NO: 4 (human) (UniProt P33151); experiment: sandwich ELISA, BV9 capture, rabbit polyclonal detection; CAD1-4 at 5 ng/mL; mean OD minus OD at 0 ng/mL
[17] = target: recombinant fragment of human VE-cadherin extracellular region, CAD 1-4 fragment (Asp48-Glu478, preceded by Met), SEQ ID NO: 4 (human) (UniProt P33151); experiment: sandwich ELISA, BV9 capture, rabbit polyclonal detection; CAD1-4 at 5 ng/mL
[18] = target: recombinant fragment of human VE-cadherin extracellular region, CAD 1-4 fragment (Asp48-Glu478, preceded by Met), SEQ ID NO: 4 (human) (UniProt P33151); experiment: sandwich ELISA, BV9 capture, rabbit polyclonal detection; CAD1-4 at 0.63 ng/mL; second replicate
[19] = target: recombinant fragment of human VE-cadherin extracellular region, CAD 1-4 fragment (Asp48-Glu478, preceded by Met), SEQ ID NO: 4 (human) (UniProt P33151); experiment: sandwich ELISA, BV9 capture, rabbit polyclonal detection; CAD1-4 at 10 ng/mL; mean OD minus OD at 0 ng/mL

Substance: anti-VEcadherin mouse mAb, clone BV9 (Abcam, product datasheet ab7047) (antibody)
- OD1 [1]: 1.76 OD
- OD2 [1]: 1.76 OD
- mean OD [1]: 1.76 OD
- OD [2]: 1.09 OD
- lowest mAb concentration giving detection [3]: 0.02 µg/mL
- mAb concentration at signal plateau [3]: 0.1 to 1 µg/mL
- mean OD [4]: 1 OD
- OD [5]: 1.07 OD
- mean OD [6]: 1.17 OD
- OD1 [7]: 0.988 OD
- OD2 [7]: 0.985 OD
- mean OD [7]: 0.987 OD
- lowest detectable quantity [8]: 1 ng
- Corr. OD [9]: 0.282 OD
- mean OD [10]: 0.937 OD
- OD [11]: 1.9 OD
- Corr. OD [12]: 0.143 OD
- OD [13]: 1.45 OD
- Corr. OD [14]: 0.116 OD
- Corr. OD [15]: 0.087 OD
- Corr. OD [16]: 0.512 OD
- OD1 [17]: 1.31 OD
- OD2 [17]: 1.21 OD
- mean OD [17]: 1.26 OD
- OD [18]: 0.899 OD
- Corr. OD [19]: 1.06 OD

Source: US20100120171A1
